# Reference: IntAct's records for PubMed 19204291
# B1: Programmed cell death protein 4 (Homo sapiens), Q53EL6 (parent)
# chain: MDVENEQILNVNPADPDNLSDSLFSGDEENAGTEEIKNEINGNWISASSINEARINAKAKRRLRKNSSRDSGRGDSVSDSGSDALRSGLTVPTSPKGRLLDRRSRSGKGRGLPKKGGAGGKGVWGTPGQVYDVEEVDVKDPNYDDDQENCVYETVVLPLDERAFEKTLTPIIQEYFEHGDTNEVAEMLRDLNLGEMKSGVPVLAVSLALEGKASHREMTSKLLSDLCGTVMSTTDVEKSFDKLLKDLPELALDTPRAPQLVGQFIARAVGDGILCNTYIDSYKGTVDCVQARAALDKATVLLSMSKGGKRKDSVWGSGGGQQSVNHLVKEIDMLLKEYLLSGDISEAEHCLKELEVPHFHHELVYEAIIMVLESTGESTFKMILDLLKSLWKSSTITVDQMKRGYERIYNEIPDINLDVPHSYSVLERFVEECFQAGIISKQLRDLCPSRGRKRFVSEGDGGRLKPESY
# Variants of: B1
# Details: with if4a1_human EIF4A1, P60842
# Sequence of if4a1_human EIF4A1, P60842 (P60842 whole entry): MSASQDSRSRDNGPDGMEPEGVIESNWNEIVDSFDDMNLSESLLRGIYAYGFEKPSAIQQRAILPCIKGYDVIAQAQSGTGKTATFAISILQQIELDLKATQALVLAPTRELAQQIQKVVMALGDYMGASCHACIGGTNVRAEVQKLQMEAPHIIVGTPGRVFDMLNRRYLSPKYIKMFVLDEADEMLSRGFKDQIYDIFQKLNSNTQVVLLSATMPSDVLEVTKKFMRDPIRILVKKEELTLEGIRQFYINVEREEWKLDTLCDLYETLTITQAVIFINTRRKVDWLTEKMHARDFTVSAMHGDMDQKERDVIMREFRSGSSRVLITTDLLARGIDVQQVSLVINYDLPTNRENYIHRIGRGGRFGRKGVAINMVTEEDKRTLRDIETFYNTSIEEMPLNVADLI
row,Variant,effect of a mutation on the interaction
1,MDVENEQILNVNPADPDNLSDSLFSGDEENAGTEEIKNEINGNWISASSINEARINAKAKRRLRKNSSRDSGRGDSVSDSGSDALRSGLTVPTSPKGRLLDRRSRSGKGRGLPKKGGAGGKGVWGTPGQVYDVEEVDVKDPNYDDDQENCVYETVVLPLDERAFEKTLTPIIQEYFEHGDTNEVAEMLRDLNLGEMKSGVPVLAVSLALEGKASHREMTSKLLSDLCGTVMSTTDVEKSFDKLLKDLPALALATPRAPQLVGQFIARAVGDGILCNTYIDSYKGTVDCVQARAALDKATVLLSMSKGGKRKDSVWGSGGGQQSVNHLVKEIDMLLKEYLLSGDISEAEHCLKELEVPHFHHELVYEAIIMVLESTGESTFKMILDLLKSLWKSSTITVDQMKRGYERIYNEIPAINLAVPHSYSVLERFVEECFQAGIISKQLRDLCPSRGRKRFVSEGDGGRLKPESY [E249A;D253A;D414A;D418A],disrupting interaction strength
